The nanobody polyreactivity screen of Harvey et al. (2022)

Assay: yeast display, Sf9 membrane polyspecificity reagent, FACS + sequencing; frameworks hold sequencing errors
How it was run: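 Synthetic nanobody libraries on Saccharomyces cerevisiae BJ5465 were galactose-induced for 36–48 hours, stained 1 hour at 4 °C with 10% biotinylated, detergent-solubilized Sf9 membrane reagent and enriched on streptavidin microbeads. FACS then separated cells into low and high (top ~1%) gates by anti-HA (expression) and streptavidin (reagent binding) fluorescence. Genes were colony-PCR amplified, MiSeq 2 × 250 sequenced and CDR-length filtered. A clone's polyreactivity label is that of its gate of origin.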

Sequence	polyreactivity (PSR sort gate)
QVQLVESGAGLVQAGGSLRLSCAASGRNFGTYAMGWYTQAPGTERELVAGINGSGGSTYYADSVKGRFTISRDNAKNTVFLQMNSLKPEDTAVYYCAKYNWYRAWRYGYWGQGTQVTVSS	high polyreactivity
QVQLVESGAGLVQAGGSLRLSCAASGRTFHRYAMGWYRQAPGKERELVATINRNGGSTYYADSVKGRFTISRDNAKNTVYLQMNSLKPDDTAVYYCNKRVYTGYKYSESFDRYYYWGQGTQVTVSS	high polyreactivity
QVQLVESGAGLVQAGGSLRLSCAASGRTFKTYAMAWYRQAPGKERELVAAISRDGRTYYADSVKGRFTISRDNAKNTVYLQMNSLKPEDTAVYYCAKDASVWPWWGYRGDYWGQGTQVTVSS	low polyreactivity
QVQLVESGAGLVQAGGSLRLSCAASGSIFGSYAMGRDRQAPGKERELVAGITYRGSSTYYAESVKGRFTISRDNAKNTVYLQMNSLKPEATAVYYCAADPVFDEYDYWGQGTQVTVSS	low polyreactivity
QVQLVESGAGLVQAGGSLRLSCAASGSIFWAYAMGWYRQAPGKERELVAAISRGGTTTYADSVKGRFTISRDNAKYTVYLQMNSLKPEDTAVYYCARQGTIYSYDIVYPRLDYWGQGTQVTVSS	low polyreactivity
QVQLVESGAGLVQAGGSLRLSCAASGSTFDGNVMGWYRQEPGKESELVAAISGGGSTNYADSVKGRFTISRDNAKNTVYLQMNSLKPEDTAVYYCATQYWHFPYWQYKYDYWGQGTQVTVSS	low polyreactivity
QVQLVESGAGLVQAGGSLRLSCAASGSTFGKYAMGWYTQAPGKEMELVARIDSGDGTYYADSVKGRFTISRDNAKNTVYLQMNSLKPEDTAVYYCAARYGARRLTYFWPQYARYDYWGQGTKVTVSS	high polyreactivity
QVQLVESGAGLVQAGGSLRLSCAASGSTFGSYTMGWYRQAPGKERELVAAINWSGGNTYYADSVKGRFTISRDTAKNTVYLQMNSLKPEDTAVYYCAAAFYIYGVEGDYWGQGTQVTVSS	low polyreactivity
QVQLVESGAGLVQAGGSLRLSCAASGSTFKRYAMGWYRQAPGKERELVAAITWRGGSTYYADSVKGRFTISRDNAKNTVYLQMNSLKPEDTAVYYSATDYVYRYDYWGQGTQVTVSS	high polyreactivity
QVQLVESGAGLVQAGGSLRLSCAASGSTFTLNAMGWYRQAPGKERELVADISWSSGRTYYADSVKGRFTISRDNAKNTVDLQMNSLNPEDTAVYYCATDDFWIVKFYAYYPEFDYWGQVTQVTVSS	low polyreactivity
QVQLVESGAGLVQAGGSLRLSCAASGYTFSKNTMGWYRQAPGKERELVAAISRSGGSTYYADSVKGRFTISRDNAKNTFYLQMNSLKPEDTAVYYSAKRVSTYGFSGYDYWGQGTQVTVSS	high polyreactivity
QVQLVESGAGLVQAGGSLRLSCAGSGLTFRGNAMGCYRQAPGKERELVAAISWSDDTTDYADSVKGRFTISRDNAKNTVYLQMNSLKPEDTAVYYCAARRRIYRSMGFWGQGSQVTVSS	low polyreactivity
QVQLVESGAGLVQAGGSLRLSCAPSGIIFYWNTMAWYRQAPGKERELVAAISSRSGSTYYADSVKGRFTISRDNAKNTVYLQMISLKPEDTAVFYCAARYGYRYADKGTDYGYWGQGTQVTVSS	high polyreactivity
QVQLVESGAGLVQAGGSLRLSCAPSGRIFYYAMGWYRQAPGKERELVAAISSGGSTNYADSVKGRFTISRDNSKNSVYLQMNSLKPEDTAVYYCAADRYWRWPRRDYWGQGTQVTVSS	low polyreactivity
QVQLVESGAGLVQAGGSLRLSCAPSGSTFEDYAMGWYRQAPGKERELVAAISHIGGSTYYADSVKGRFTISRDNAKNTVYLQMNSLKPEDTAVYYCAKGGFSSKFDYWGQGTQVTVSS	low polyreactivity
QVQLVESGAGLVQAGGSLRLSCASSGTIFWGYAMGWYRQAPGKERELVAAITDSGGRTYYADSVKGRFTISRDNAKNTVYLQMNCLKPEDTAVYYCAADYYSQYYYYAVPDRDYWGQGTQVTVSS	low polyreactivity
QVQLVESGAGLVQAGGSLRLSSAASGLTFQTYAMGCYRQAPGKEREYVATISNGSSTYYADSVKGRFTISRDNAKNTVYFQMNILKPEDTAVYYCAKDYYYSRNQLYGHDYWGQGPQVTVSS	low polyreactivity
QVQLVESGAGLVQAGGSLRLTCAASGSNFYYYAMGWYRQAPGKERELVAAINGGDTYYADSVKGRFTISRDNAKNTVYLQMNSLKPEDTAVFYCAAEGVTVEWDYDYWGQGTQVTVSS	low polyreactivity
QVQLVESGAGLVQAGGSLRLTCAPSGSIFNIYSMGWYRQAPGKDRELVATITGIADSTYYADSVKGRFTISRDNANNTVYLQMNILKPEDTAFYYCAADIYVAEYDYWGQGTQVTVSS	low polyreactivity
QVQLVESGAGLVQAGGSLSLSCAASGRTIVTNAMGWYRQAPGKERELVAAINGRGDNTYYADSVKGRFTISRDNAKNTFYLQMNSLKPEDTAVYYCAVRRGYHSHTKYYYWGLGTQVTVSS	high polyreactivity
QVQLVESGAGLVQEVGSLRLSCAASGFTFGVNAMGSSRQAPGKERQFVASIRVRGCSTYYADSEKGRFTISRDNAKNTVYLQMNSLKPEDTAVYFCNAEVYVSSYATEMDYWGQGTQVTVSS	low polyreactivity
QVQLVESGARLVQAGGSLRLSCAASAYTLVGYAMGWYRQEPGKERELVADINFSGGRTYYADSVKGRFTISRDNAKNNVYLQMNSLKPEDTAVYYCNAAGALSWFYYGYDYWGQGTQVTLSS	low polyreactivity

Sequence	polyreactivity (PSR sort gate)
QVQLVESGARLVQAGGSLRLSCDASGITFFAYAIGWYRQAQGKERELVAAISCNTGRTYYADSVKGRFTISRDNAKITVYLQMNSLKPEDTAVYYCAKRGVGVGYNYWGQGTQVTVSS	high polyreactivity
QVQLVESGEGLVQAGGSLRLICAASGRNFYSNAMVWYRQAPGKERELVAAMSYSGGSTYYADSVKGRFTISRDNAKNTVYLQMNSLKPEDTAVYYCAADTTYWPYWGTYVVYDYWGQGTQVTVSS	low polyreactivity
QVQLVESGEGLVQAGGSLRLSCAASRRIFEYYFMGWYSQAPGKERELVAAMNRRGTSTYYADSVKGRFTISRDNAKNTVYLQMNSLKPEDTAVYYCAAVDRDYARTTTYDYWGQGTEVTVSS	high polyreactivity
QVQLVESGGALGQAGGSLRLTSAASGITFPRYAIGWYRHAPGKEREMVATITRSGGGTYYADSVKGRFKISRDNAKNTVYLQMNSLKPEDTSVFYCAAGALQRGVYGYGFWGQGTQVTVSS	high polyreactivity
QVQLVESGGALLQAGGSLRLSCAASGRTFGYNAMGWYRQAPGKEREMVAAITYSGGRTSYADSVKGRFTISRDNAKNTVYLQMNSLKPEDTAVYYCAAQTRYYSGYNYWGQATQVTVSS	high polyreactivity
QVQLVESGGALVHAGGSLRLSCAASGSTFSGYDMVWYRQAPGKERELVAAISTYYADSVKGRFTISRDNAKTTVFLQMYCLKPEDRAVYYCAKPWGRYDYLGQGTQVTVSS	low polyreactivity
QVQLVESGGALVQAGGSLRLICAASGRIFQRYTKGWYRQAPGKERELVAAITYSGGRTYYADSVKGRFTISRDNAKNTVYLQMNSLKPEDTAVYYCYAAYFNWYTHVWNDYWGQGTQVTVSS	high polyreactivity
QVQLVESGGALVQAGGSLRLICAASGSIFGYNAMGWYRPSPGKEREFVASIRDRGGSTYYADSVKGRFTISRDNAKNTLYFQMKSLKQEDTAVYYGDAYWWGVSKRQYGYWGQGTQVTVSS	high polyreactivity
QVQLVESGGALVQAGGSLRLICAASGSILYAYAMGWYRQAPGKERELVATNSYRGDRTRYADSVKGRFTISRDNAKNTVYLQMNSLKPEDTAVYSCAAKRKTSVPPVVKWSGYWGQGTQVTVSS	high polyreactivity
QVQLVESGGALVQAGGSLRLSCAASGFTFIPNAMGWYRQAPGKERELVAAIYSSGGTTYYADSVKGRFTISRDTAKNTVYLQMNSLKTEDTAVYYCARRVYGYYIPYNYWGQATQVTVSS	high polyreactivity
QVQLVESGGALVQAGGSLRLSCAASGIIFGRNGMGWYRQAPGKERELVAAISRGGGSTYYADSVKGRFTISRDNAKNTVYLQMNSLKPEDTAVYYCARRPTGIYDYWGQVTQVTVSS	high polyreactivity
QVQLVESGGALVQAGGSLRLSCAASGITFARNAMGWYRQAPGKERELVAVISTRGGRTYYADSVKGRFTISRDNAKNTVYLQMNSLKPEDTAVYYCAASPDPYWRRMDYWGQGTQVTVSS	high polyreactivity
QVQLVESGGALVQAGGSLRLSCAASGLTFTDYAMGWYRPAPGQERELVAGIWDGGSTYYADSVKGRFTISRDNAKNTVYLQMNSLKPEDTAVYYCAAEDWWTSFPEYYYWGQGTQVTVSS	high polyreactivity
QVQLVESGGALVQAGGSLRLSCAASGRIFGVNAMGWYRQAPGKERELVAAITSRGGSTYYADSVKGRFTISRDNAKNTVYLQMHSLTPEDTEVYYCRGWRYFTDKTYDYWGQGTQVTVSS	high polyreactivity
QVQLVESGGALVQAGGSLRLSCAASGRIFGYYAMGWYRQAPGKERELVAAITVSGTSTYYADSVKGRFTISRDNAKNTVYLQMNSLKPEDTAVYYCAARPRRRYYGYDSWGQGTQVTVSS	high polyreactivity
QVQLVESGGALVQAGGSLRLSCAASGRIFIVYAMRWYRQAPGKERELVASITSGASTNYADSVKGRFTISRDNAKNTVYLQMNSLKPEDTAVYDCNADGPGAYLSEFGYWGQGTQVTVSS	low polyreactivity
QVQLVESGGALVQAGGSLRLSCAASGRIFSRYVIRWYRQAPGKERELVAAISWNGGSTYYADSVKGRFRISRDNAKNTVYLQMNSLKPEDTAVYYCAARVRVTGTYYTKFDYWGQGTQVTVSS	high polyreactivity
QVQLVESGGALVQAGGSLRLSCAASGRIFSSYAMGWYRQEPGKERELVAAISRSGARTYYADSVKGRFTISRDNAKYSVYLQMNSLIAEDSAVSYCAAVTVSCYDYWGQGTQVTVSS	high polyreactivity
QVQLVESGGALVQAGGSLRLSCAASGRTFGHNAMGCSRQAPGKEREFVAAITYSGVRTFYADSVKGRFTISRDNAQNTVYLQMNSLKPEDTAVYYCATDWRRDYDYWGQGTQVTVSS	low polyreactivity
QVQLVESGGALVQAGGSLRLSCAASGRTFGVYAMGWYRQAPGKERELVAAISRRAGNTYYADSVKGRFTISRDNAKNTVYLQMNSLKTEDTAVYYCAADFSRQYGYWGQGTQVTVSS	high polyreactivity
QVQLVESGGALVQAGGSLRLSCAASGSIFDHNAMGWYRQAPGKERELVAAITWSGTSTYYADSVKGRFTISRDNAKNTVYLQMNSLIPEETAVYYCAAYLYGAVRAYPYRWGRYNYWGQGTQVTVSS	high polyreactivity
